According to the supplement of paper PMC7877785:
± gives the uncertainty stated by the source.

Test: self-splicing fitness, log relative to wild type (ln ratio); higher = more splicing; Tetrahymena group I intron in knt gene, E. coli kanamycin selection, DiMSum; sequences stand for … in CUCUCU…GGAGGGAAAAGUUAUCAGGCAUGCACCUGGUAGCUAGUCUUUAAACCAAUAGAUUGCAUCGGUUUAAAAGGCAAGACCGUCAAAUUGCGGGAAAGGGGUCAACAGCCGUUCAGUACCAAGUCUCAGGGGAAACUUUGAGAUGGCCUUGCAAAGGGUAUGGUAAUAAGCUGACGGACAUGGUCCUAACCACGCAGCCAAGUCCUAAGUCAACAGAUCUUCUGUUGAUAUGGAUGCAGUUCACAGACUAAAUGUCGGUCGGGGAAGAUGUAUUCUUCUCAUAAGAUAUAGUCGGACCUCUCCUUAAUGGGAGCUAGCGGAUGAAGUGAUGCAACACUGGAGCCGCUGGGAACUAAUUUGUAUGCGAAAGUAUAUUGAUUAGUUUUGGAGUACUCGUGGUCG
Method in brief: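 A randomised library covering all eight P1ex-region intron nucleotides was built with the intron in the knt kanamycin-resistance gene on pET-22b(+) and held in E. coli BL21(DE3). Cells were grown overnight at 37°C or 30°C on LB agar, with or without 25 μg/mL kanamycin, plus 100 μg/mL carbenicillin, 50 μM IPTG and 0.2% rhamnose, and pooled colonies were amplicon-sequenced on an Illumina HiSeq 2500. DiMSum fitness is the error-weighted combination of wild-type-normalised replicate fold changes, kanamycin versus none.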

Sequence	self-splicing fitness (ln) (30 °C)	self-splicing fitness (ln) (37 °C)
CAGAAGCAAUAUUACGUACG	-0.111 ± 0.089	0.665 ± 0.14
UCUGAGCAAUAUUACGAAAU	-4.41 ± 0.46	-2.24 ± 0.4
CUCCAGCAAUAUUACGGUCC	-3.11 ± 0.17	-2.83 ± 0.38
CAUAAGCAAUAUUACGGUUU	-4.02 ± 0.19	-2.69 ± 0.17
CCAAAGCAAUAUUACGUCCA	-2.8 ± 0.26	-2.19 ± 0.3
UCCGAGCAAUAUUACGACUA	-2.51 ± 0.28	-2.21 ± 0.27
UAAAAGCAAUAUUACGGUUA	0.139 ± 0.067	0.222 ± 0.079
GGCAAGCAAUAUUACGGUUU	-0.376 ± 0.052	0.232 ± 0.069
UGCUAGCAAUAUUACGCCAA	–	0.0147 ± 0.24
CUAGAGCAAUAUUACGACAG	0.262 ± 0.087	0.734 ± 0.12
GAACAGCAAUAUUACGCCUC	-1.81 ± 0.17	-1.89 ± 0.26
UUCGAGCAAUAUUACGCUCG	-1.64 ± 0.25	-3.36 ± 0.42
AAUUAGCAAUAUUACGGGUA	-1.52 ± 0.11	-0.428 ± 0.098
AGCGAGCAAUAUUACGCACU	-1.62 ± 0.2	-1.37 ± 0.29
CGACAGCAAUAUUACGAGAU	-3.16 ± 0.23	-2.01 ± 0.21
CGUAAGCAAUAUUACGAAGU	-3.81 ± 0.18	-2.51 ± 0.17
AUUGAGCAAUAUUACGAGCU	-3.6 ± 0.37	-1.63 ± 0.37
GAAGAGCAAUAUUACGACUU	-0.765 ± 0.12	0.131 ± 0.14
AGAGAGCAAUAUUACGUCUA	-2.48 ± 0.35	-0.494 ± 0.26
GUACAGCAAUAUUACGGGAC	-1.7 ± 0.12	-1.22 ± 0.14
GCACAGCAAUAUUACGUGCU	-3.6 ± 0.1	-2.75 ± 0.12
GGACAGCAAUAUUACGUCGC	-3.12 ± 0.18	0.343 ± 0.15
UUUCAGCAAUAUUACGGACU	-0.982 ± 0.13	-0.184 ± 0.11
GGCCAGCAAUAUUACGUUGG	-3.91 ± 0.25	-3.17 ± 0.25

Sequence	self-splicing fitness (ln) (30 °C)	self-splicing fitness (ln) (37 °C)
GCGUAGCAAUAUUACGAAGG	–	-2.27 ± 0.5
GUAGAGCAAUAUUACGACAG	-3.49 ± 0.33	-1.86 ± 0.3
CCAUAGCAAUAUUACGCUCU	-4.23 ± 0.3	-2.85 ± 0.24
GGAGAGCAAUAUUACGAUUG	-2.75 ± 0.26	-2.17 ± 0.43
UGAUAGCAAUAUUACGUCGG	-1.4 ± 0.12	-0.72 ± 0.12
ACCUAGCAAUAUUACGAUUA	-2.05 ± 0.15	-1.51 ± 0.12
GCGUAGCAAUAUUACGAUUA	-0.494 ± 0.082	0.608 ± 0.085
CAAUAGCAAUAUUACGGCUU	-2.53 ± 0.13	-1.42 ± 0.13
UUAAAGCAAUAUUACGGGGA	-1.02 ± 0.068	0.216 ± 0.1
GCUCAGCAAUAUUACGAAGC	-2.75 ± 0.12	-2.33 ± 0.15
UAGUAGCAAUAUUACGUAAC	-3.54 ± 0.15	-1.89 ± 0.15
UUCCAGCAAUAUUACGAUUG	-2.03 ± 0.12	-1.47 ± 0.16
AGCUAGCAAUAUUACGGCAA	-0.629 ± 0.081	-0.284 ± 0.097
UGCCAGCAAUAUUACGCGCA	-2.51 ± 0.28	-1.06 ± 0.16
CGCAAGCAAUAUUACGGAUA	-3.52 ± 0.22	-2.23 ± 0.16
CAGGAGCAAUAUUACGACCA	–	-1.27 ± 0.31
GUUCAGCAAUAUUACGUGAU	-0.367 ± 0.049	0.43 ± 0.068
GUCAAGCAAUAUUACGGUGG	-4.45 ± 0.15	-3.19 ± 0.17
AGCGAGCAAUAUUACGGCUG	-1.47 ± 0.12	-0.625 ± 0.15
GGCAAGCAAUAUUACGAUGG	-2.61 ± 0.19	-1.52 ± 0.16
UGGUAGCAAUAUUACGGUGA	-1.36 ± 0.12	-1.34 ± 0.12
AAGAAGCAAUAUUACGUUCA	-0.746 ± 0.077	0.133 ± 0.099
GAGUAGCAAUAUUACGAGGG	-3.5 ± 0.44	-1.94 ± 0.28
CCCCAGCAAUAUUACGUGCA	-4.13 ± 0.18	-2.17 ± 0.14
